In this experiment the target is MBP-TSR4+5, recombinant thrombospondin repeats 4 and 5 of human properdin expressed in tandem, fused to maltose-binding protein (human). Kind of experiment: SEC.

Results on 1 substance are retold here after publication PMC5951972.

As for “MBP-TSR4+5, recombinant thrombospondin repeats 4 and 5 of human properdin expressed in tandem, fused to maltose-binding protein (domain or fragment)”, the percent migrating as dimer was determined as 40% and the stoichiometry N stood at 2.

As a reminder, the stoichiometry N is the number of molecules, sites or subunits per partner or assembly.
